Test results taken from publication PMC9579160.
One block for each molecule: values may come before it.

Key:
[1] = molecular target: His-tag-fused full-length wild-type CraCRY (C. reinhardtii animal-like cryptochrome) (C. reinhardtii); assay: SEC; lit (blue light); inline SEC of the SAXS runs, Superdex 200, 50 mM HEPES pH 7.4, 150 mM NaCl, 5% glycerol, 25 °C, 2 to 10 mg/mL
[2] = molecular target: His-tag-fused PHR domain of CraCRY (M1-A489) (C. reinhardtii); assay: as above
[3] = molecular target: Strep-tag-fused CraCRY::mCitrine (C. reinhardtii); assay: single-molecule pull-down (TIRF colocalisation with photobleaching step counting); lit (blue light, 450 nm): Strep-tag-fused CraCRY::mCitrine tethered to the glass slide by streptavidin as bait, ROC15(GARP)::mCherry as prey
[4] = molecular target: Strep-tag-fused CraCRY::mCitrine (C. reinhardtii); assay: single-molecule photobleaching step counting; lit (blue light): photobleaching steps of CraCRY::mCitrine protein complexes counted by TIRF microscopy
[5] = molecular target: Strep-tag-fused CraCRY::mCitrine (C. reinhardtii); assay: single-molecule pull-down (TIRF colocalisation with photobleaching step counting); lit (blue light, 450 nm): Strep-tag-fused CraCRY::mCitrine tethered to the glass slide by streptavidin as bait, ROC15(GARP)::mCherry as prey; remark: listed apart in the source

Molecule: His-tag-fused PHR domain of CraCRY (M1-A489) (domain or fragment)
stoichiometry N [2]: 2

Molecule: Strep-tag-fused CraCRY::mCitrine (natural protein)
dimer fraction without colocalized ROC15 [3]: 15.5%
population of two-step bleaching [4]: 25.1%

Other lines, results leading:

stoichiometry N [1]: 2
Molecule: His-tag-fused full-length wild-type CraCRY (C. reinhardtii animal-like cryptochrome) (natural protein)

fraction of interacting CraCRY (colocalization) [5]: 23.3%
percentage of interaction between ROC15 and CraCRY monomers [5]: 25.1%
B1: ROC15(GARP)::mCherry (domain or fragment)
chain: MGEEYADDGTTRAVKRPRLVWTPQLHRKFESAVIKLGEDKAVPKTIMQEMNIDGLTRENVASHLQKYRM
